From the supplement of paper PMC7877785
± gives the uncertainty stated by the source.

Assay: self-splicing fitness, log relative to wild type (ln ratio); higher = more splicing; Tetrahymena group I intron in knt gene, E. coli kanamycin selection, DiMSum; sequences stand for … in CUCUCU…GGAGGGAAAAGUUAUCAGGCAUGCACCUGGUAGCUAGUCUUUAAACCAAUAGAUUGCAUCGGUUUAAAAGGCAAGACCGUCAAAUUGCGGGAAAGGGGUCAACAGCCGUUCAGUACCAAGUCUCAGGGGAAACUUUGAGAUGGCCUUGCAAAGGGUAUGGUAAUAAGCUGACGGACAUGGUCCUAACCACGCAGCCAAGUCCUAAGUCAACAGAUCUUCUGUUGAUAUGGAUGCAGUUCACAGACUAAAUGUCGGUCGGGGAAGAUGUAUUCUUCUCAUAAGAUAUAGUCGGACCUCUCCUUAAUGGGAGCUAGCGGAUGAAGUGAUGCAACACUGGAGCCGCUGGGAACUAAUUUGUAUGCGAAAGUAUAUUGAUUAGUUUUGGAGUACUCGUGGUCG
How it was run: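 A randomised library covering all eight P1ex-region intron nucleotides was built with the intron in the knt kanamycin-resistance gene on pET-22b(+) and held in E. coli BL21(DE3). Cells were grown overnight at 37°C or 30°C on LB agar, with or without 25 μg/mL kanamycin, plus 100 μg/mL carbenicillin, 50 μM IPTG and 0.2% rhamnose, and pooled colonies were amplicon-sequenced on an Illumina HiSeq 2500. DiMSum fitness is the error-weighted combination of wild-type-normalised replicate fold changes, kanamycin versus none.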

| Sequence | self-splicing fitness (ln) (30 °C) | self-splicing fitness (ln) (37 °C) |
| --- | --- | --- |
| AUGAAGCAAUAUUACGCAUG | -0.801 ± 0.077 | 0.175 ± 0.085 |
| CCACAGCAAUAUUACGUGAG | -0.847 ± 0.051 | -0.739 ± 0.065 |
| CCACAGCAAUAUUACGAUUC | -3.17 ± 0.11 | -2.23 ± 0.14 |
| CCUAAGCAAUAUUACGCGAA | -2.23 ± 0.22 | -2.61 ± 0.29 |
| CGAAAGCAAUAUUACGCGAC | -2.36 ± 0.19 | -3.26 ± 0.25 |
| GGUCAGCAAUAUUACGCUUU | 0.129 ± 0.071 | -0.0673 ± 0.092 |
| UUUUAGCAAUAUUACGGCGG | -0.446 ± 0.16 | -0.137 ± 0.15 |
| GCAGAGCAAUAUUACGAAAC | -3.28 ± 0.14 | -2.23 ± 0.14 |
| AAUAAGCAAUAUUACGAGAG | -2.47 ± 0.14 | -2.01 ± 0.2 |
| CUUCAGCAAUAUUACGAAUA | -2.77 ± 0.14 | -2.09 ± 0.13 |
| ACUCAGCAAUAUUACGUGAG | -1.55 ± 0.062 | -0.663 ± 0.082 |
| UGUGAGCAAUAUUACGCCGU | – | -1.71 ± 0.47 |
| AUAAAGCAAUAUUACGCAUA | -1.34 ± 0.088 | -0.0324 ± 0.11 |
| AUAGAGCAAUAUUACGCGAC | -2.44 ± 0.18 | -1.3 ± 0.17 |
| UUCCAGCAAUAUUACGUUUC | -3.24 ± 0.23 | -2.17 ± 0.21 |
| CCGGAGCAAUAUUACGGCUC | – | -2.08 ± 0.37 |
| ACAAAGCAAUAUUACGCGAA | -2.41 ± 0.096 | -1.13 ± 0.092 |
| GGCUAGCAAUAUUACGAGGC | -2.31 ± 0.24 | – |
| AGCAAGCAAUAUUACGUAUC | -3.34 ± 0.26 | -1.41 ± 0.2 |
| UUUAAGCAAUAUUACGGAGA | -2.18 ± 0.21 | -0.727 ± 0.17 |
| UUCGAGCAAUAUUACGCUUU | -3.89 ± 0.26 | -2.56 ± 0.21 |
| AAGUAGCAAUAUUACGUAAC | -1.51 ± 0.13 | -2.24 ± 0.24 |
| CGAUAGCAAUAUUACGUUGA | -2.74 ± 0.18 | -1.3 ± 0.14 |
| UAAUAGCAAUAUUACGCCCU | -1.59 ± 0.4 | -0.36 ± 0.38 |
| UCGCAGCAAUAUUACGACGC | -1.81 ± 0.48 | – |

| Sequence | self-splicing fitness (ln) (30 °C) | self-splicing fitness (ln) (37 °C) |
| --- | --- | --- |
| UUGAAGCAAUAUUACGACAC | -1.07 ± 0.13 | -0.278 ± 0.2 |
| CUAGAGCAAUAUUACGUAGU | -2.72 ± 0.22 | -1.94 ± 0.33 |
| UAGAAGCAAUAUUACGAACC | -2.02 ± 0.24 | -0.44 ± 0.3 |
| UCCCAGCAAUAUUACGAUGC | -4.03 ± 0.3 | -3.29 ± 0.32 |
| CAACAGCAAUAUUACGUAGG | -0.482 ± 0.055 | 0.249 ± 0.069 |
| CGGCAGCAAUAUUACGGCAG | -0.677 ± 0.095 | -0.796 ± 0.11 |
| ACGAAGCAAUAUUACGUCUG | -0.601 ± 0.069 | -0.997 ± 0.092 |
| UAAAAGCAAUAUUACGAGAA | -2.18 ± 0.24 | -0.995 ± 0.16 |
| AUCCAGCAAUAUUACGGGGU | -4.35 ± 0.18 | -2.19 ± 0.13 |
| GCAUAGCAAUAUUACGGAAU | -2.21 ± 0.16 | -1.84 ± 0.23 |
| CAGCAGCAAUAUUACGUGGC | -3.81 ± 0.25 | -1.67 ± 0.23 |
| ACCCAGCAAUAUUACGCACU | -0.41 ± 0.064 | 0.0872 ± 0.077 |
| CACUAGCAAUAUUACGGCCU | -2.77 ± 0.2 | -1.94 ± 0.18 |
| GCCCAGCAAUAUUACGCACA | -0.537 ± 0.092 | -0.518 ± 0.094 |
| GAAUAGCAAUAUUACGUCUU | -0.449 ± 0.059 | 0.342 ± 0.074 |
| GAACAGCAAUAUUACGGCGU | -0.302 ± 0.083 | 0.212 ± 0.097 |
| UGAGAGCAAUAUUACGCUCA | – | -1.22 ± 0.38 |
| CGCUAGCAAUAUUACGGGAA | -3.1 ± 0.22 | -2.76 ± 0.26 |
| UCUCAGCAAUAUUACGGCUG | -2.11 ± 0.13 | -2.21 ± 0.28 |
| UAAGAGCAAUAUUACGUGUG | -2.99 ± 0.18 | -1.4 ± 0.14 |
| GUCGAGCAAUAUUACGGUCU | -3.35 ± 0.28 | -1.12 ± 0.18 |
| UGCUAGCAAUAUUACGCAGA | -4.03 ± 0.31 | -2.26 ± 0.17 |
| UUGAAGCAAUAUUACGCCUA | 0.0255 ± 0.13 | 0.487 ± 0.22 |
| GCUGAGCAAUAUUACGUAAC | -2.3 ± 0.24 | -1.6 ± 0.36 |
